The experiment deals with SARS-CoV-2 spike receptor-binding domain (RBD), wild type (Severe acute respiratory syndrome …, UniProt P0DTC2). Nature of the experiment: SPR. Particulars: both partners purified.

The Kd is the equilibrium constant for the complex coming apart. By koff is commonly meant the first-order rate constant of dissociation. The low end stands for slow dissociation, the high end for fast dissociation. By kon is commonly meant a measure of how fast the partners come together.

B1: 7B8, recombinant fully human IgG1 (antibody, V domains shown)
VH: QVQLVESGGGVVQPGRSLRLSCAASGFIFSSYGMHWVRQAPGKGLEWVAVIWFDGSNKYYADSVKGRFTISRDNSKNTLYLQMNSLRAEDTAVYYCARETVSYGMDVWGQGTTVTVSS
VL: NIQMTQSPSAMSASVGDRVTITCRARQGISNYLAWFQQKPGKVPKHLIYAASSLLSGVPSRFSGSGSETEFTLTISSLQPEDFATYYCLQHNSYPYTFGQGTKLEIK
notes: also called Ab4; source: ExpiCHO-S, transient expression, purified (protein A)
B1: the Kd is 0.523 nM, the koff came to 9.55e-05 s⁻¹ and the kon stood at 182000 M⁻¹ s⁻¹.

Values taken from publication PMC8290868 (Cell Discovery, 2021).
